Data on 3 molecules can be found in US20220162305A1 (IMCHECK THERAPEUTICS, published 2022).

For test [1], the target named is T1, human BTN2A1-CFP fusion protein expressed on HEK-293T BTN2 KO cells (human, UniProt Q7KYR7 29-527).
T1 construct: not shown: CFP tag; printed as 'CFP(Nter)-fusion' and as 'BTN2A1-CFP'
T1 sequence: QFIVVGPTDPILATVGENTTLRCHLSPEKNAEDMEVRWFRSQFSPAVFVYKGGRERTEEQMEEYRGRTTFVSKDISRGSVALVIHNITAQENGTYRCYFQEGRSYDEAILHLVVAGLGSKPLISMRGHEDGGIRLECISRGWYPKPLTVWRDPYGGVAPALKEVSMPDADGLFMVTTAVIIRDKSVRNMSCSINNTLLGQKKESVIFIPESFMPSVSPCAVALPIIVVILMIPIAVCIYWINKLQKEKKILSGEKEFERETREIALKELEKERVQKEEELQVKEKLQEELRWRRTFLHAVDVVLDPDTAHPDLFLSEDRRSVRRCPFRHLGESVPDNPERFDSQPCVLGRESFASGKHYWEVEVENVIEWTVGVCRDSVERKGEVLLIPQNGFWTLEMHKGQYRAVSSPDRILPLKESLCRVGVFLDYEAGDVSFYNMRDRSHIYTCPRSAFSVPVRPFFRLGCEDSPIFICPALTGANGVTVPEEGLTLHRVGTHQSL
Description: flow cytometry, MFI on CFP+ HEK-293T BTN2 KO cells transfected with BTN2A1-CFP, 5 ng/mL to 75 µg/mL mAb. On the technique in general: A flow cytometer gives signals particle by particle.

Test [2] has as its target T2, biotinylated recombinant human BTN2A2-Fc (R&D Systems) (human, UniProt Q8WVV5 33-265, limits assumed, biotinylated (sites not given)).
T2 construct: Bought soluble Fc fusion; also called rhBTN2A2-Fc; not shown: Fc part of the bought fusion protein
T2 sequence: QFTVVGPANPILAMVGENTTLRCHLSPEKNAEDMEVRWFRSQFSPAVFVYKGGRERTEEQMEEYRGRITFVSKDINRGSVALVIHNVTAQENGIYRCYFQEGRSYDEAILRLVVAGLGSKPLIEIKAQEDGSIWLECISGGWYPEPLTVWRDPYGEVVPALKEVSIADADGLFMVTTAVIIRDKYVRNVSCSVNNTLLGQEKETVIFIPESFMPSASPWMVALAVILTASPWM
Description: BLI (Octet Red96), chimeric mAb on FAB2G sensors, biotinylated rhBTN2A2-Fc as analyte. Background: Biolayer interferometry detects binding as a change in optical thickness at a sensor tip.

Test [3] has as its target T3, recombinant human BTN2A1-Fc fusion protein (GTP Technologies) (human, UniProt Q7KYR7 29-248, biotinylated with EZ-Link NHS-PEG4 biotin for the Octet affinity assay (sites not given)).
T3 construct: Bought soluble Fc fusion; Used biotinylated in Octet, unmodified in ELISA and cross-linking MS; also called rhBTN2A1-Fc; huBTN2A1-Fc; not shown: Fc part of the bought fusion protein
T3 sequence: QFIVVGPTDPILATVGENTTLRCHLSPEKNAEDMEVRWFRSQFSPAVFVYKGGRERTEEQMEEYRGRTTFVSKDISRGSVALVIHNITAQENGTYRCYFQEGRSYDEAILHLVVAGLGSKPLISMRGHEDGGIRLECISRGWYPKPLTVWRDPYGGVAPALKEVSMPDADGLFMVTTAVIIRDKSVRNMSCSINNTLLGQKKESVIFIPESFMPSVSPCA
Description: ELISA, huBTN2A1-Fc coated at 5 µg/mL, mAb titrated, goat anti-mouse IgG HRP, absorbance at 405 nm. (In general: An ELISA detects its analyte on a solid surface through an enzyme-linked reagent.)

Test [4] addresses T3, recombinant human BTN2A1-Fc fusion …. Description: BLI (Octet Red96), biotinylated rhBTN2A1-Fc on streptavidin sensors, chimeric mAb as analyte, 30 °C, 1:1 model.
Description: Affinity and binning experiments were performed on an Octet Red96 platform (Fortebio/PALL), system based on Bio-layer interferometry (BLI) technology. For affinity experiments, recombinant human (rh)BTN2A1-Fc (GTP) was biotinylated using EZ-Link™ NHS-PEG4 Biotinylation Kit according to manufacturer's instructions, and biotinylated rhBTN2A2-Fc was purchased from R&D Systems. […] For BTN2A2 affinity assays, chimeric anti-BTN2A antibodies were loaded into FAB2G sensors (anti human CH1; Fortebio) as described above, and biotinylated rhBTN2A2-Fc was used as analyte. In both cases, analytes remained in solution and their working concentrations were diluted in Kinetic Buffer 10× (ForteBio). […] All runs (including loading, equilibration, association/dipping of sensors into analyte, dissociation and regeneration) were performed at 30° C. with shaking 1000 rpm. Analysis was performed using a 1:1 or 2:1 Langmuir model (for BTN2A1 or BTN2A2, respectively) calculated by Octet software, which allowed a better fitting calculation.
The target in test [5] is T2, biotinylated recombinant human …. Nature of the test: BLI (Octet Red96), chimeric mAb on FAB2G sensors, biotinylated rhBTN2A2-Fc as analyte, 30 °C, 2:1 model.
Description: After generation of the reference anti-BTN2A antibodies in chimeric IgG1 format, affinities for the 2 different isoforms of this target (BTN2A1 and BTN2A2) were evaluated and competition assays were performed to determine whether these mAbs recognized the same epitope region of BTN2A1. Affinity and binning experiments were performed on an Octet Red96 platform (Fortebio/PALL), system based on Bio-layer interferometry (BLI) technology. For affinity experiments, recombinant human (rh)BTN2A1-Fc (GTP) was biotinylated using EZ-Link™ NHS-PEG4 Biotinylation Kit according to manufacturer's instructions, and biotinylated rhBTN2A2-Fc was purchased from R&D Systems. […] For BTN2A2 affinity assays, chimeric anti-BTN2A antibodies were loaded into FAB2G sensors (anti human CH1; Fortebio) as described above, and biotinylated rhBTN2A2-Fc was used as analyte. In both cases, analytes remained in solution and their working concentrations were diluted in Kinetic Buffer 10× (ForteBio). […] All runs (including loading, equilibration, association/dipping of sensors into analyte, dissociation and regeneration) were performed at 30° C. with shaking 1000 rpm. Analysis was performed using a 1:1 or 2:1 Langmuir model (for BTN2A1 or BTN2A2, respectively) calculated by Octet software, which allowed a better fitting calculation.

B1: purified anti-BTN2A1 107G3 mAb (mouse hybridoma antibody) (antibody, V domains shown)
VH: QVQLKESGPGLVAPSQSLSITCTVSGFSLTNYVISWVRQPPGKGLEWLGVIWTGGDTNYNSALKSRLSISKDNSKSQVFLKMNSLQTGDTARYYCARGGQLGLRGYWGQGTLVTVSA
VL: DIVLTQSPASLAVSLGQRATISCRASKTVSSSGYSYMHWYQQKPGQPPKLLIYLASNLESGVPARFSGSGSGTDFTLNIHPVEEEDAATYYCQHSRDLPYAFGGGTKLEIK
notes: Mouse antibody purified from hybridoma; mouse IgG1 served as its isotype control; also called anti-BTN2A1 mAb 107G3
B1 gave an EC50 in test [1] of 0.32 µg/mL.

B2: chimeric anti-BTN2A mAb2 (107G3), chimeric IgG1 format (antibody, V domains shown)
VH: B1 VH
VL: B1 VL
notes: Murine VH and VK cloned into heavy and light chain expression vectors, chimeric IgG1 (isotype control human IgG1), made in HEK-293 cells; also called anti-BTN2A 107G3
For the molecule B2, the binding result in test [2] was “no binding (tested: 200 nM)”. The EC50 in test [3] stood at 0.56 nM. Further, in test [4], the Kd came out at 0.41 nM.

B3: chimeric anti-BTN2A mAb1 (101G5), chimeric IgG1 format (antibody, V domains shown)
VH: EVQLQQSGPELVKPGASVKISCKASGYSFTVYYMLWVKQSPEKSLEWIGEINPSTGGTTYNQKFKAKATLTVDKSSSTAYMQLKSLTSEDSAVYYCARGPSFYALDYWGQGTSVTVSS
VL: EIVLTQSPTTMAASPGEKITITCSATSSISSNYLHWYRHKPGFSPKLLIYRTSNLASGVPGRFSGSGSGTSYSLTIGTMEAEDVATYYCQQGSSIPRTFGGGTKLEIK
notes: Chimeric IgG1 (isotype control human IgG1), made in HEK-293 cells; also called anti-BTN2A 101G5
Regarding B3, in test [3], the concentration giving a half-maximal response (EC50) turned out to be 0.82 nM. The Kd in test [5] amounted to 4.4 nM; in test [4], 0.041 nM.

Usually EC50 stands for the concentration at which the effect is half-maximal. What is called Kd is the free concentration of one partner at which half of the binding sites on the other are occupied at equilibrium, for simple one-to-one binding.
